Results: patent CN115521375A (INST PASTEUR SHANGHAI CAS, dated 2022)

B1: 单抗5G2 (antibody)
heavy: EVLLQQSGPELVKPGASVKIPCKASGYTFTDYNMDWVKQSHGKSLEWIGDINPNSGFIIYNQKFKGKASLTVDKSSSTAYMELRSLTSEDTAVYYCAREGYGNNFDYWGQGTTLSVSSAKTTPPSVYPLAPGCGDTTGSSVTLGCLVKGYFPESVTVTWNSGSLSSSVHTFPALLQSGLYTMSSSVTVPSSTWPSQTVTCSVAHPASSTTVDKKLEPSGPISTINPCPPCKECHKCPAPNLEGGPSVFIFPPNIKDVLMISLTPKVTCVVVDVSEDDPDVQISWFVNNVEVHTAQTQTHREDYNSTIRVVSTLPIQHQDWMSGKEFKCKVNNKDLPSPIERTISKIKGLVRAPQVYILPPPAEQLSRKDVSLTCLVVGFNPGDISVEWTSNGHTEENYKDTAPVLDSDGSYFIYSKLNMKTSKWEKTDSFSCNVRHEGLKNYYLKKTISRSPGK
light: DILLTQSPTILSVSPGERVSFSCRASQSIGTSIHWYQQRTKGSPRLLIKYASESISGIPSRFSGSGSGTDFTLSINSVESEDIGDYYCQQSYSWPTTFGAGTKLELK
notes: also called 抗体5G2
B2: 单抗3H3 (antibody, V domains shown)
VH: QVQLQQPGAELVRPGASVKLSCKASGYSFTRFWMNWVKQRPGQGLEWIGMIHPSDSETRLNQKFKDKATLTVDKSSTTAYMQLSSPTSEDSAVYYCARKDYDYDAWFAYWGQGTLVTVSA
VL: DIVLTQSPASLAVSLGQRATISCRASKSVSASVYSYMHWYQQKPGQPPKLLIYLASSLESGVPARFSGSGSGTDFTLNIHPVEEEDAATYYCHHSRELPPAFGGGTKLEIKR
notes: also called 抗体3H3

Experiments:
Test in all cases: cell-based or functional assay
[1] = target: SARS-CoV-2 B.1.1.7假病毒的S蛋白 (SARS-CoV-2 B.1.1.7)
[2] = target: SARS-CoV-2 B.1.351假病毒的S蛋白 (SARS-CoV-2 B.1.351)
[3] = target: SARS-CoV-2 B.1.617假病毒的S蛋白 (SARS-CoV-2 B.1.617)

| Binder | 半数抑制浓度(IC50), 假病毒中和试验 [1] [µg/mL] | 半数抑制浓度(IC50), 假病毒中和试验 [2] [µg/mL] | 半数抑制浓度(IC50), 假病毒中和试验 [3] [µg/mL] | 中和IC50, 假病毒中和试验 [1] [µg/mL] | 中和IC50, 假病毒中和试验 [2] [µg/mL] | 中和IC50, 假病毒中和试验 [3] [µg/mL] |
| --- | --- | --- | --- | --- | --- | --- |
| B1 | 0.482 | 0.367 | 0.103 | – | – | – |
| B2 | – | – | – | 0.191 | 0.107 | 0.098 |
